The record followed here is patent publication US20130324474A1 (Eli Lilly, published 2013).

Numbering of substitutions follows the chain as printed. Numbers in names are those of the source.

Assay [1] concerns the target T1, Recombinant Human GFRα-1/GDNF Rα-1 Fc Chimera (human, UniProt P56159 25-429).
T1 construct: Purchased Fc chimera; It was captured on protein A in Biacore and coated on the plate in ELISA; also called GFRα1-Fc; recombinant human GFRα1-Fc chimera, carrier-free; not shown: Fc part of a purchased Fc chimera
T1 sequence (looked up): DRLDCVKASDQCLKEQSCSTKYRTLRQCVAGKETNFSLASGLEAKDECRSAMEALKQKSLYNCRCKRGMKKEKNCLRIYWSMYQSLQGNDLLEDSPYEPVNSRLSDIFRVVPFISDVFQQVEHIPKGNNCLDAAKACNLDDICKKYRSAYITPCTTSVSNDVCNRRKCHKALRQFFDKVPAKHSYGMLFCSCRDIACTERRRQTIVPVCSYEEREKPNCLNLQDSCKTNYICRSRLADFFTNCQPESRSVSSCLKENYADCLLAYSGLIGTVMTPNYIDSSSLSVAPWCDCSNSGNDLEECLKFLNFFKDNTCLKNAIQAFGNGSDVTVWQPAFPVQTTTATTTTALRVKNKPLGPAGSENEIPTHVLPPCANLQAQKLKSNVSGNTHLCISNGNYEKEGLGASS
Put plainly: ELISA, plate-bound human GFRα1-Fc; lower end of the 95% confidence range, n = 14. How it is done: (§1) Each well of a 96-well plate (Greiner 655081 Immunobind ELISA plates) is coated with 70 μl of human GFRα1 (recombinant human GFRα1-Fc chimera, carrier-free) at 1 μg/ml in carbonate buffer, pH 9.6. If an irrelevant receptor is coated, it is an irrelevant Fc chimera and is coated at the same concentration as GFRα1. The plates are sealed and incubated at 4° C. overnight. The wells are aspirated and washed twice with washing buffer (20 mM Tris (hydroxymethyl) aminomethane, pH 7.4, 0.15 M NaCl, 0.1% Tween-20), using an automatic plate washer. The plates are blocked with 200 μl blocking buffer per well (3% Carnation Instant milk in the above washing buffer) for at least 1 hour at room temperature. Plates are washed twice with washing buffer. […]
(§2) A 50 μl aliquot of horseradish peroxidase-conjugated streptavidin (Jackson ImmunoResearch, catalog #016-030-084), diluted 1:1000 in blocking buffer, is added to each well and incubated for 20-30 minutes at room temperature. […] The absorbance of the wells is read at 490 nm on a Molecular Devices SpectraMax250 plate reader. The average absorbance for the triplicate wells for each condition are determined, and the resulting values are processed for EC₅₀ calculation with Graph Pad Prism software to provide a 95% confidence range.
A general note: In an ELISA, binding on a coated surface is turned into a signal by an enzyme label.

The target in assay [2] is T1, Recombinant Human GFRα-1/GDNF Rα-1 Fc …. Put plainly: ELISA, plate-bound human GFRα1-Fc; upper end of the 95% confidence range, n = 14. How it is done:
as §1, §2

For assay [3] the target is unchanged. Put plainly: SPR (Biacore 2000), GFRα1-Fc captured on protein A, GDNFv as analyte, 1:1 Langmuir, 25 C. How it is done:
(§3) A Biacore® 2000 instrument is used to measure the binding kinetics of GDNFv to human and rat GDNF family receptors (GFRα1 and GFRα2). Measurements are performed at 25° C. Samples are dissolved in HBS-EP buffer (150 mM sodium chloride, 3 mM EDTA, 0.005% (w/v) surfactant P-20, pH 7.4). Protein A, Staphylococcus aureus is immobilized on flow cells 1 to 4 of a CM4 sensor chip (GE Healthcare #BR-1005-39) at a level of ˜200 response units (RUs) using amine coupling chemistry to capture GFR Fc chimera (Recombinant Human GFRα-1/GDNF Rα-1 Fc Chimera; Recombinant Human GFRα-2/GDNF Rα-2 Fc Chimera; Recombinant Rat GFRα-1/GDNF Rα-1 Fc Chimera; Recombinant Mouse GFRα-2/GDNF Rα-2 Fc Chimera).
(§4) Binding is evaluated using multiple cycles. Each cycle consists of the following steps: 1) injection of about 10 μL of GFR at a concentration of ˜1.0 μg/mL and a flow rate of 10 μL/min., aiming at a capture of 120-150 RUs; 2) injection of 250 μL of GDNFv at a flow rate of 50 μL/min., in a final concentration rage between 10 nM and 0.04 nM followed by […]. for dissociation; and 3) regeneration using about 30 μL of 10 mM glycine hydrochloride, pH 1.5. Association and dissociation rates for each cycle are evaluated using a “1:1 (Langmuir) binding” model in the BIAevaluation software, version 4.1.

Assay [4] addresses T2, Recombinant Human GFRα-2/GDNF Rα-2 Fc Chimera (human, UniProt O00451 22-441).
T2 construct: Purchased Fc chimera; not shown: Fc part of a purchased Fc chimera
T2 sequence (looked up): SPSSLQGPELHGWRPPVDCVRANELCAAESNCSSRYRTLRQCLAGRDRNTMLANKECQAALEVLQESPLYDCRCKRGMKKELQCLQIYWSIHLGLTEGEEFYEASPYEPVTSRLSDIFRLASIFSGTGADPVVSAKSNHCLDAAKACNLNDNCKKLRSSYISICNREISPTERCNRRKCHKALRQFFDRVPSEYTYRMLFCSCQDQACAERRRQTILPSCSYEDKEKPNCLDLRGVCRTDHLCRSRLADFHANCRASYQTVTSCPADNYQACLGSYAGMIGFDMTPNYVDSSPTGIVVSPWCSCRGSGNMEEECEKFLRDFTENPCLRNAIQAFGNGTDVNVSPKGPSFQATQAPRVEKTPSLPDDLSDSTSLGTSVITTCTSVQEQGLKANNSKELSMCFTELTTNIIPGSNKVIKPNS
Put plainly: SPR (Biacore 2000), human GFRα2-Fc captured on protein A, GDNFv as analyte, 1:1 Langmuir, 25 C. How it is done: as §3, §4
On the technique in general: SPR reads the build-up and loss of mass on a sensor chip optically.

Assay [5] deals with T1, Recombinant Human GFRα-1/GDNF Rα-1 Fc …. The assay is described as follows: ELISA, plate-bound human GFRα1-Fc; lower end of the 95% confidence range, n = 4. How it is done: as §1, §2

B1: CHO-Δ31-GDNF (SEQ ID NO: 8) (ligand)
chain: RGQRGKNRGCVLTAIHLNVTDLGLGYETKEELIFRYCSGSCDAAETTYDKILKNLSRNRRLVSDKVGQACCRPIAFDDDLSFLDDNLVYHILRKHSAKRCGCI
modifications: N-glycosylated at N49 (numbering of mature GDNF)
notes: Expressed in CHO cells; also called CHO-Δ31-GDNFv; WT CHO Δ31-GDNFv
On to B1, for which the EC50 in assay [1] lay within 0.3 to 0.6 nM. In addition, the EC50 in assay [2] lay in the range of 0.3 to 0.6 nM. Moreover, in assay [3], the Kd was found to be 0.029 nM, the koff worked out at 9e-05 s⁻¹ and the kon came out at 3.8e+06 M⁻¹ s⁻¹. In assay [4], the equilibrium dissociation constant (Kd) was 0.047 nM, the koff is 0.00025 s⁻¹ and the kon amounted to 5.3e+06 M⁻¹ s⁻¹.

B2: CHO-Δ31-N38Q-D95E-GDNF (SEQ ID NO: 9) (ligand)
chain: B1 chain with N7Q, D64E
modifications: N-glycosylated at N49 (numbering of mature GDNF)
notes: Expressed in CHO cells; also called CHO-Δ31-N38Q-D95E-GDNFv; GDNF variant 2
As for B2, the EC50 in assay [5] was 0.3 to 1.9 nM. In addition, in assay [3], the Kd was determined as 0.03 nM, the koff was found to be 0.00011 s⁻¹ and the kon is 4.5e+06 M⁻¹ s⁻¹. Moreover, in assay [4], the Kd is 0.047 nM, the koff was found to be 0.00035 s⁻¹ and the kon was 7.6e+06 M⁻¹ s⁻¹.

In general, EC50 refers to the midpoint of the concentration-response curve. As usually defined, the Kd is a measure of binding affinity in units of concentration. What is called koff is the rate constant with which the complex falls apart. In general, kon refers to the rate constant with which the complex forms.
